B1: peptide 39 (peptide)
peptide: Pentanoyl-ECYLACIEALIRAAQEQQEKNEAALR-NH2
modifications: linker 2-6 via B21″
SMILES: CCCCC(=O)N[C@@H](CCC(=O)O)C(=O)N[C@H]1CSCc2ccc3ccc(cc3c2)CSC[C@@H](C(=O)N[C@H](C(=O)N[C@@H](CCC(=O)O)C(=O)N[C@@H](C)C(=O)N[C@@H](CC(C)C)C(=O)N[C@H](C(=O)N[C@@H](CCCNC(=N)N)C(=O)N[C@@H](C)C(=O)N[C@@H](C)C(=O)N[C@@H](CCC(N)=O)C(=O)N[C@@H](CCC(=O)O)C(=O)N[C@@H](CCC(N)=O)C(=O)N[C@@H](CCC(N)=O)C(=O)N[C@@H](CCC(=O)O)C(=O)N[C@@H](CCCCN)C(=O)N[C@@H](CC(N)=O)C(=O)N[C@@H](CCC(=O)O)C(=O)N[C@@H](C)C(=O)N[C@@H](C)C(=O)N[C@@H](CC(C)C)C(=O)N[C@@H](CCCNC(=N)N)C(N)=O)[C@@H](C)CC)[C@@H](C)CC)NC(=O)[C@H](C)NC(=O)[C@H](CC(C)C)NC(=O)[C@H](Cc2ccc(O)cc2)NC1=O
B2: peptide 32 (peptide)
peptide: Suc-ENYLRLIEELIRKAQEQQEKNEAALRGSGC(cholesteryl‑oxycarbonylmethyl)-NH2
SMILES: CC[C@H](C)[C@H](NC(=O)[C@H](CC(C)C)NC(=O)[C@H](CCC(=O)O)NC(=O)[C@H](CCC(=O)O)NC(=O)[C@@H](NC(=O)[C@H](CC(C)C)NC(=O)[C@H](CCCNC(=N)N)NC(=O)[C@H](CC(C)C)NC(=O)[C@H](Cc1ccc(O)cc1)NC(=O)[C@H](CC(N)=O)NC(=O)[C@H](CCC(=O)O)NC(=O)CCC(=O)O)[C@@H](C)CC)C(=O)N[C@@H](CCCNC(=N)N)C(=O)N[C@@H](CCCCN)C(=O)N[C@@H](C)C(=O)N[C@@H](CCC(N)=O)C(=O)N[C@@H](CCC(=O)O)C(=O)N[C@@H](CCC(N)=O)C(=O)N[C@@H](CCC(N)=O)C(=O)N[C@@H](CCC(=O)O)C(=O)N[C@@H](CCCCN)C(=O)N[C@@H](CC(N)=O)C(=O)N[C@@H](CCC(=O)O)C(=O)N[C@@H](C)C(=O)N[C@@H](C)C(=O)N[C@@H](CC(C)C)C(=O)N[C@@H](CCCNC(=N)N)C(=O)NCC(=O)N[C@@H](CO)C(=O)NCC(=O)N[C@@H](CSCC(=O)O[C@H]1CC[C@@]2(C)C(=CC[C@H]3[C@@H]4CC[C@H]([C@H](C)CCCC(C)C)[C@@]4(C)CC[C@@H]32)C1)C(N)=O
B3: peptide 35 (peptide)
peptide: Suc-ANYLALIEALIRAAQEQQEKNEAALRGSGC(cholesteryl‑oxycarbonylmethyl)-NH2
SMILES: CC[C@H](C)[C@H](NC(=O)[C@H](CC(C)C)NC(=O)[C@H](C)NC(=O)[C@H](CCC(=O)O)NC(=O)[C@@H](NC(=O)[C@H](CC(C)C)NC(=O)[C@H](C)NC(=O)[C@H](CC(C)C)NC(=O)[C@H](Cc1ccc(O)cc1)NC(=O)[C@H](CC(N)=O)NC(=O)[C@H](C)NC(=O)CCC(=O)O)[C@@H](C)CC)C(=O)N[C@@H](CCCNC(=N)N)C(=O)N[C@@H](C)C(=O)N[C@@H](C)C(=O)N[C@@H](CCC(N)=O)C(=O)N[C@@H](CCC(=O)O)C(=O)N[C@@H](CCC(N)=O)C(=O)N[C@@H](CCC(N)=O)C(=O)N[C@@H](CCC(=O)O)C(=O)N[C@@H](CCCCN)C(=O)N[C@@H](CC(N)=O)C(=O)N[C@@H](CCC(=O)O)C(=O)N[C@@H](C)C(=O)N[C@@H](C)C(=O)N[C@@H](CC(C)C)C(=O)N[C@@H](CCCNC(=N)N)C(=O)NCC(=O)N[C@@H](CO)C(=O)NCC(=O)N[C@@H](CSCC(=O)O[C@H]1CC[C@@]2(C)C(=CC[C@H]3[C@@H]4CC[C@H]([C@H](C)CCCC(C)C)[C@@]4(C)CC[C@@H]32)C1)C(N)=O

Starred links: 1 amine or outer side, 2 acyl side, 3 side chain; linkers in the order of their positions; H or OH if unused. Positions of bridges follow the written chain, without caps; N, C: chain ends. Non-standard residues stand in square brackets, D forms with d. Primed or numbered codes have the meaning given here. *: point of attachment. cholesteryl‑oxycarbonylmethyl = CC(C)CCC[C@@H](C)[C@H]1CC[C@H]2[C@@H]3CC=C4C[C@@H](OC(=O)C*)CC[C@]4(C)[C@H]3CC[C@]12C; B21″ = 2,7-dimethylnaphtyl linker joining two Cys, c1cc2ccc(C[*:2])cc2cc1C[*:1]; tBuAla = CC(C)(C)C[C@H](N)C(=O)O; Suc = O=C(CCC(=O)[*:2])[*:1]; hCys = N[C@@H](CCS)C(=O)O; Nva = CCC[C@H](N)C(=O)O; Hexanoyl = CCCCCC(=O)*; Pentanoyl = CCCCC(=O)*; B1 = not defined here; B3 = not defined here; Butyryl = CCCC(=O)*

One experiment concerns the target gp41 of HIV-1 strain HXB2D with mutation V38A (HIV-1 strain HXB2D, UniProt P04578). In words: cell-based or functional assay.
Conditions: not given
As to Ac-ECYLACIEELIRKAQEQQEKNEAALR-NH2 (linker 2-6 via B1; reading uncertain) [peptide 37], the “fold change in EC50, HIV-HXB2D V38A mutant” value (shortened to “fold change in EC50”) was determined as 7 fold. On to Suc-CYLACIEALIRAAQEQQEKNEAALR-NH2 (linker 1-5 via B1; reading uncertain) [peptide 26], for which the “fold change in EC50” value stood at 19 fold. With Ac-ENYTRQIYRILEESQEQQDRNERDLL-NH2 [Sifuvirtide-PBD], the “fold change in EC50” value is over 3 fold. Still for that read-out and setting: next, Suc-ACYLACIEELIRKAQEQQEKNEAALR-NH2 (linker 2-6 via B1; not fully specified; reading uncertain) [peptide 31]: 14 fold.

For Suc-ACYLACIEALIRA[Nva]QEQQEKNEAALR-NH2 (linker 2-6 via B1; reading uncertain) [peptide 46], the “fold change in EC50” value came to 6 fold. Still for that read-out and setting: to Suc-ECYLACIEALIRAAQEQQEKNEAALR-NH2 (linker 2-6 via B1; reading uncertain) [peptide 33] belongs 11 fold; to Suc-ACYLACIDELIAKAQEQQEKNEAALR-NH2 (linker 2-6 via B1; reading uncertain) [peptide 36], 23 fold; to B1, 2 fold. Same read-out and setting: next, Suc-ECYLRCIEELIRKAQEQQEKNEAALR-NH2 (linker 2-6 via B1; reading uncertain) [peptide 29]: 7 fold. The same measure, in the same setting: next, B2: 1 fold; Suc-ACYLACIEELIRKAQEQQEKNEAAL[dR]-NH2 (linker 2-6 via B1; reading uncertain) [peptide 34]: 19 fold. As to Pentanoyl-ECYLACIEALIRAAQEQQEKNEAALR-NH2 (linker 2-6 via B1; reading uncertain) [peptide 38], the “fold change in EC50” value came out at 3 fold. The same measure, in the same setting: to Ac-SWETWEREIENYTRQIYRILEESQEQQDRNERDLLE-NH2 [Sifuvirtide] belongs 1 fold. As to Ac-ECYLACIEALIRAAQEQQEKNEAALR-NH2 (linker 2-6 via B1; reading uncertain) [peptide 45], the “fold change in EC50” value was 14 fold. Still for that read-out and setting: next, Suc-ACYLACIDELIKKAQEQQEKNEAALR-NH2 (linker 2-6 via B1; reading uncertain) [peptide 30]: 8 fold; Suc-[hCys]YLA[hCys]IEALIRAAREQQEKNEALLR-NH2 (linker 1-5 via B1; reading uncertain) [peptide 28]: 4 fold. Same read-out and setting: to Suc-CYLACIEELIRKAQEQQEKNEAAL[tBuAla]-NH2 (linker 1-5 via B3; reading uncertain) [peptide 27] belongs 28 fold. Regarding B3, the “fold change in EC50” value is 4 fold. On the same count and under the same terms, to Suc-ACYLACIEALIRAAQEQQEKNEAALR-NH2 (linker 2-6 via B1; reading uncertain) [peptide 43] belongs 19 fold; to Pentanoyl-ECYLACIEELIRKAQEQQEKNEAALR-NH2 (linker 2-6 via B1; reading uncertain) [peptide 41], 2 fold. As to Hexanoyl-ECYLACIEELIRKAQEQQEKNEAALR-NH2 (linker 2-6 via B1; reading uncertain) [peptide 42], the “fold change in EC50” value worked out at 2 fold. As for Suc-ACY[Nva]ACIEALIRAAQEQQEKNEAALR-NH2 (linker 2-6 via B1; reading uncertain) [peptide 44], the “fold change in EC50” value was determined as 15 fold.

Turning to Butyryl-ECYLACIEELIRKAQEQQEKNEAALR-NH2 (linker 2-6 via B1; reading uncertain) [peptide 40], the “fold change in EC50” value came to 3 fold. Turning to Suc-CYLACIEELIRKAQEQQEKNEAAL[tBuAla]-NH2 (linker 1-5 via B1; reading uncertain) [peptide 24], the “fold change in EC50” value was determined as 26 fold.

A further experiment deals with HIV wild type virus strain IIIB. In words: Standard Anti-Viral-Experiment (AVE), HIV-1 replication assay in MT4-LTR-EGFP cells, wild type IIIB. The conditions noted are these: 3 days, EGFP signal. Type of experiment: cell-based. The text has this:
• Standard Anti-Viral-Experiment “AVE” (wild type HIV strain IIIB+HIV strain HXB2D side directed mutants V38A and Q40H)
The HIV-1 replication assay measures virus replication (HIV wild type virus strain 111B or HXB2D, or a HIV mutant virus strain HXB2D with mutation V38A or Q40H in the gp41 gene) as an induction of enhanced green fluorescent protein (EGFP) expression. The indicator MT4-LTR-EGFP cells contain an EGFP gene under the control of the HIV-1 LTR promoter sequence. Successful HIV-1 infection results in viral Tat protein expression and subsequent induction of EGFP expression. Compounds/peptides inhibiting HIV-1 infection are expected to reduce EGFP expression as compared to the untreated HIV-infected control.
Serial 4-fold dilutions of test compounds/peptides were mixed with HIV-1 (IIIB, HXB2D, or a HXB2D mutant virus (V38A or Q40H)) and MT4-LTR-EGFP cells and incubated at 37° C. After 3 days, the wells were examined for EGFP expression using an argon laser-scanning microscope. The effective compound/peptide concentration inhibiting 50% of the virus-induced EGFP signal (EC50) was determined by linear interpolation of the EGFP signal vs. logarithm of the compound concentration; (T20, C34 and Sifuvirtide were added as reference compounds). For the V38A and Q40H mutant viruses, results were reported as a fold change in EC50, as compared with a drug-susceptible wild type strain HXB2D, which forms the backbone of the mutant virus. • Standard AVE (50% Human Serum)
What is called EC50 is the midpoint of the concentration-response curve. Read a high EC50 as a less potent agent. As for “NNYTSLIHSLIEESQNQQEKNEQELL [C34-PBD*, reference compound]”, the EC50 is over 49.2 µM.
